Data on one molecule can be found in publication PMC5670201 (2017).

The target of the assay is nab-paclitaxel nanoparticles (human, UniProt P02768 25-609). Briefly: BLI. For orientation: In BLI a coated tip is dipped into the sample, and binding shifts an interference pattern.

B1: biotinylated bevacizumab (antibody, V domains shown)
VH: EVQLVESGGGLVQPGGSLRLSCAASGYTFTNYGMNWVRQAPGKGLEWVGWINTYTGEPTYAADFKRRFTFSLDTSKSTAYLQMNSLRAEDTAVYYCAKYPHYYGSSHWYFDVWGQGTLVTVSS
VL: DIQMTQSPSSLSASVGDRVTITCSASQDISNYLNWYQQKPGKAPKVLIYFTSSLHSGVPSRFSGSGSGTDFTLTISSLQPEDFATYYCQQYSTVPWTFGQGTKVEIK
modifications: biotin (sites not given) | biotin (sites not given)
For B1, binding was characterised by a dissociation constant (Kd) of 4.51 µM.

The Kd is the free concentration of one partner at which half of the binding sites on the other are occupied at equilibrium, for simple one-to-one binding. A higher Kd goes with a looser complex.
